# Test results as given in patent US20080032929A1.
# Assays:
# [1] = molecular target: rabbit α-tropomyosin purified from ventricular muscle (rabbit) (UniProt P58772); test: ELISA solid phase protein binding: cTnT coated, serial dilutions of rabbit α-tropomyosin, detected with mAb CH1; concentration of tropomyosin for 50% maximum binding
# [2] = molecular target: bovine cardiac troponin I purified from ventricular muscle (bovine) (UniProt P08057); test: ELISA solid phase protein binding: cTnT coated, serial dilutions of bovine cardiac TnI, detected with mAb TnI-1; concentration of TnI required to reach 50% of maximum binding
# [3] = molecular target: bovine cardiac troponin T (bovine) (UniProt P13789)
EC50 [1],EC50 [2],"relative amounts of intact and NH2-terminal truncated cTnT, densitometry of mAb CT3 Western blots of µ-calpain treated bovine cardiac myofibrils (% intact cTnT) [3]",Substance
9.73 nM,8.73 nM,–,"NH2-terminal truncated mouse cardiac troponin T (McTnT-ND72-291), reconstructed and expressed in E. coli (from UniProt P50752)"
13.5 nM,15.3 nM,–,"intact mouse cardiac troponin T (TnT4), expressed in E. coli (from UniProt P50752)"
–,–,1.5,µ-calpain (Calbiochem) (enzyme)
